Reference: US20220249633A1

Target: HLA-A*24 (human)
Test: UV-exchange ELISA, exchange yield grade

Row | Binder | peptide exchange yield
1 | VFIHHLPQF [… (SEQ ID NO: 200)] | 50 to 75%
2 | LYSPVPFTL [… (SEQ ID NO: 175)] | 50 to 75%
3 | IYAGVGEFSF [… (SEQ ID NO: 210)] | > 75%
4 | YYMELTKLLL [… (SEQ ID NO: 156)] | > 75%
5 | VYPPYLNYL [… (SEQ ID NO: 181)] | 50 to 75%
6 | RYGFYYVEF [… (SEQ ID NO: 167)] | 50 to 75%
7 | TYLEKIDGF [… (SEQ ID NO: 208)] | > 75%
8 | VYFKAGLDVF [… (SEQ ID NO: 177)] | 50 to 75%
9 | VFTTSSNIF [… (SEQ ID NO: 186)] | > 75%
10 | NYITGKGDVF [… (SEQ ID NO: 169)] | 50 to 75%
11 | VFIFKGNEF [… (SEQ ID NO: 172)] | > 75%
12 | VYEKNGYIYF [… (SEQ ID NO: 174)] | 50 to 75%
13 | RYLEAALRL [… (SEQ ID NO: 168)] | 50 to 75%
14 | NYEDHFPLL [… (SEQ ID NO: 171)] | 50 to 75%
15 | AYIKGGWIL [… (SEQ ID NO: 195)] | 50 to 75%
16 | LYLENNAQTQF [… (SEQ ID NO: 193)] | 50 to 75%
17 | GYNPNRVFF [… (SEQ ID NO: 201)] | 50 to 75%
18 | KYLQVVGMF [… (SEQ ID NO: 180)] | 50 to 75%
19 | IYSVGAFENF [… (SEQ ID NO: 184)] | > 75%
20 | AYAQLGYLLF [… (SEQ ID NO: 182)] | > 75%
21 | VYQSLSNSL [… (SEQ ID NO: 194)] | 50 to 75%
22 | SYLNHLNNL [… (SEQ ID NO: 199)] | 50 to 75%
23 | EYFTPLLSGQF [… (SEQ ID NO: 165)] | 50 to 75%
24 | PYLQDVPRI [… (SEQ ID NO: 183)] | 50 to 75%
25 | AFIETPIPLF [… (SEQ ID NO: 209)] | > 75%
26 | FYTLPFHLI [… (SEQ ID NO: 166)] | > 75%

Row | Binder | peptide exchange yield
27 | TYIPVGLGRLL [… (SEQ ID NO: 179)] | 50 to 75%
28 | VYPVVLNQI [… (SEQ ID NO: 205)] | 50 to 75%
29 | KYPDIVQQF [… (SEQ ID NO: 161)] | 50 to 75%
30 | RYGDGGSSF [… (SEQ ID NO: 160)] | 50 to 75%
31 | RYLTISNLQF [… (SEQ ID NO: 163)] | > 75%
32 | DYVGFTLKI [… (SEQ ID NO: 198)] | 20 to 49%
33 | IFTDIFHYL [… (SEQ ID NO: 197)] | > 75%
34 | AYAANVHYL [… (SEQ ID NO: 187)] | > 75%
35 | EYLSTCSKL [… (SEQ ID NO: 204)] | 50 to 75%
36 | NYSSAVQKF [… (SEQ ID NO: 178)] | 50 to 75%
37 | RYVEGIVSL [… (SEQ ID NO: 202)] | 50 to 75%
38 | IYEETRGVL [… (SEQ ID NO: 159)] | 50 to 75%
39 | TYPDGTYTGRIF [… (SEQ ID NO: 191)] | 50 to 75%
40 | GYIRGSWQF [… (SEQ ID NO: 196)] | > 75%
41 | QYLEKYYNL [… (SEQ ID NO: 173)] | > 75%
42 | QYPFHVPLL [… (SEQ ID NO: 170)] | > 75%
43 | RYSTFSEIF [… (SEQ ID NO: 192)] | 50 to 75%
44 | KYTSYILAF [… (SEQ ID NO: 162)] | 20 to 49%
45 | FYINGQYQF [… (SEQ ID NO: 176)] | 50 to 75%
46 | NYLDVATFL [… (SEQ ID NO: 206)] | > 75%
47 | GYKTFFNEF [… (SEQ ID NO: 188)] | 50 to 75%
48 | LYSELTETL [… (SEQ ID NO: 190)] | 50 to 75%
49 | DYIPASGFALF [… (SEQ ID NO: 157)] | 50 to 75%
50 | LYSDAFKFIVF [… (SEQ ID NO: 207)] | 50 to 75%
51 | HYVPATKVF [… (SEQ ID NO: 164)] | 50 to 75%
52 | QYLVHVNDL [… (SEQ ID NO: 185)] | > 75%

Second part, the binder after the results:

Row | peptide exchange yield | Binder
53 | 50 to 75% | IYRFITERF [… (SEQ ID NO: 227)]
54 | 50 to 75% | IYQFVADSF [… (SEQ ID NO: 229)]
55 | 50 to 75% | QYLTAAALHNL [… (SEQ ID NO: 233)]
56 | > 75% | SYSEIKDFL [… (SEQ ID NO: 220)]
57 | > 75% | KYIGNLDLL [… (SEQ ID NO: 221)]
58 | 50 to 75% | PYFFANQEF [… (SEQ ID NO: 224)]
59 | > 75% | TFITQSPLL [… (SEQ ID NO: 223)]
60 | > 75% | AFADVSVKF [… (SEQ ID NO: 231)]
61 | 50 to 75% | FYVNVKEQF [… (SEQ ID NO: 216)]
62 | 20 to 49% | SYVASFFLL [… (SEQ ID NO: 215)]
63 | 50 to 75% | LYSELNKWSF [… (SEQ ID NO: 218)]
64 | 50 to 75% | TYTNTLERL [… (SEQ ID NO: 225)]
65 | 50 to 75% | SYLPAIWLL [… (SEQ ID NO: 234)]
66 | 50 to 75% | TYGMVMVTF [… (SEQ ID NO: 230)]
67 | 20 to 49% | SYAPPSEDLFL [… (SEQ ID NO: 213)]
68 | 20 to 49% | SYAPPSEDLF [… (SEQ ID NO: 212)]
69 | 50 to 75% | YYLSDSPLL [… (SEQ ID NO: 232)]
70 | > 75% | IYISNSIYF [… (SEQ ID NO: 217)]
71 | > 75% | VFKSEGAYF [… (SEQ ID NO: 211)]
72 | 50 to 75% | IYQYVADNF [… (SEQ ID NO: 228)]
73 | 20 to 49% | MYLKLVQLF [… (SEQ ID NO: 226)]
74 | 50 to 75% | KYLMELTLI [… (SEQ ID NO: 214)]
75 | 50 to 75% | SYLKAVFNL [… (SEQ ID NO: 219)]
